# According to paper PMC9452301 (Nature, 2022):
# B1: N-terminally truncated SHOC2 (SHOC2-ΔN; residues 91–582) (domain or fragment)
# chain: IKELNKCREENSMRLDLSKRSIHILPSSIKELTQLTELYLYSNKLQSLPAEVGCLVNLMTLALSENSLTSLPDSLDNLKKLRMLDLRHNKLREIPSVVYRLDSLTTLYLRFNRITTVEKDIKNLSKLSMLSIRENKIKQLPAEIGELCNLITLDVAHNQLEHLPKEIGNCTQITNLDLQHNELLDLPDTIGNLSSLSRLGLRYNRLSAIPRSLAKCSALEELNLENNNISTLPESLLSSLVKLNSLTLARNCFQLYPVGGPSQFSTIYSLNMEHNRINKIPFGIFSRAKVLSKLNMKDNQLTSLPLDFGTWTSMVELNLATNQLTKIPEDVSGLVSLEVLILSNNLLKKLPHGLGNLRKLRELDLEENKLESLPNEIAYLKDLQKLVLTNNQLTTLPRGIGHLTNLTHLGLGENLLTHLPEEIGTLENLEELYLNDNPNLHSLPFELALCSKLSIMSIENCPLSHLPPQIVAGGPSFIIQFLKMQGPYRAMV
# Molecular target: protein phosphatase 1 catalytic subunit, γ-isoform (PPP1CCγ) (human, UniProt P36873 1-323)
# Assay: cell-based or functional assay
# protein phosphatase 1 catalytic subunit, γ-isoform (PPP1CCγ), sequence (P36873 whole entry, canonical isoform): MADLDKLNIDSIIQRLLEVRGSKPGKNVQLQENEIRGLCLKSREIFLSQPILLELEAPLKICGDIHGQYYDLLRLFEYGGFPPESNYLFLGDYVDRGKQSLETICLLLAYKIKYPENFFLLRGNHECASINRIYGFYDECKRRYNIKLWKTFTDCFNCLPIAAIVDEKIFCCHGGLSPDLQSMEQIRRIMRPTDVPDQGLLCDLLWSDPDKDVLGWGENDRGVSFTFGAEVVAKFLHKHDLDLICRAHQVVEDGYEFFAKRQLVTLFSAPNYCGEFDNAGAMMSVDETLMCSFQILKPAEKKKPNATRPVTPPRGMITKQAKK
binder,measurement,value
B1,"Kd^app of SHOC2 from peptide dephosphorylation (25 nM PP1C, 1 µM MRAS(GCP))",~40 fold weaker than full-length SHOC2
